This is an account of results in patent US9394352B2, “Immunogenic POTE peptides and methods of use” (The United States of America, as represented by the …, priority 2010, dated 2016).

One assay has as its target T1, HLA-A2 molecule (Homo sapiens, UniProt P04439, D140Y/D185E/D98H/E176V/E277Q/G131W/G231S/I119V/I121R/I166T/I218V/L300P/L318F/N151K/N90K/P208A/P217A/Q86G/Q94H/R138H/R169H/T345S).
T1 construct: The T2 cell line is deficient for TAP1 and TAP2 transporter proteins and expresses low levels of HLA-A2; endogenous in cells; host or cells: T2 cell line (TAP1/TAP2-deficient)
Nature of the assay: T2 binding assay (HLA-A2 up-regulation on TAP-deficient T2 cells). Conditions: for FI0.5: peptide concentration that increases HLA-A2.1 expression by 50% over no peptide. The procedure: FIG. 1 is a graph showing binding affinity of POTE peptides to HLA-A2 molecules. Peptides were dissolved in DMSO in double-distilled water and different concentrations of peptides were added into the culture of TAP-deficient T2 cells. After overnight culture of the cells in medium supplemented with β2-microglobulin, cells were stained with anti-HLA-A2. HLA-A2 expression was quantified as fluorescence index (FI) according to the following formula: FI=[(mean fluorescence intensity with peptide−mean fluorescence intensity without peptide)/mean fluorescence intensity without peptide]. Background fluorescence without BB7.2 was subtracted for each individual value. To compare the different peptides, FI0.5 (the peptide concentration that increases HLA-A2.1 expression by 50% over no peptide control background) was calculated from the titration curve for each peptide.
FIGS. 2A-2C are graphs showing binding affinity of substituted POTE peptides to HLA-A2 molecules. Shown are binding affinities of the substituted POTE 252 peptides (FIG. 2A), the substituted POTE 553 peptides (FIG. 2B) and the substituted POTE 323 peptides (FIG. 2C) to HLA-A2 molecules. Different concentrations of peptides were added into the culture of TAP-deficient T2 cells. After overnight culture of the cells in medium supplemented with β2-microglobulin, cells were stained with anti-HLA-A2 antibody.
Peptide binding capacity to the HLA-A2 molecule was measured by using the T2 cell line according to a protocol described previously (Peters et al., Bioinformatics 19(14):1765-1772, 2003). T2 cells (3×10^5 cells/well) were incubated overnight in 96-well plates with culture medium (1:1 mixture of RPMI 1640/Eagle-Hank's amino acid containing 2.5% fetal bovine serum, 100 U/ml penicillin, and 100 μg/ml streptomycin) with 10 μg/ml β2-microglobulin (Sigma) and different titrated concentrations of peptides (starting from 100 μM with 2-fold serial dilution) as shown in the figures to determine the concentration giving a 50% increasing in binding. Cells were washed once with cold HBSS containing 0.1% BSA and incubated for 30 minutes at 4° C. with anti-HLA-A2.1 BB7.2 monoclonal antibody (1:40 dilution from hybridoma supernatant). After washing, cells were stained with FITC-labeled goat anti-mouse immunoglobulin (BD, San Jose, Calif.), and the level of HLA expression was measured by flow cytometry. HLA-A2 expression was quantified as fluorescence index (FI) according to the following formula: FI=[(geometric mean fluorescence intensity with peptide-geometric mean fluorescence intensity without peptide)/geometric mean fluorescence intensity without peptide]. Background fluorescence without BB7.2 was subtracted for each individual value. To compare the different peptides, FI0.5, the peptide concentration that increases HLA-A2.1 expression by 50% over no peptide control background, was calculated from the titration curve for each peptide.

The test system of assay [1] is C1R.AAD cells pulsed with peptide. Nature of the assay: 4-hour 51Cr release CTL assay after one week in vitro stimulation. Format: cell-based, human. As to conditions: CTLs from immunized AAD mice, restimulated 7 days with 1.0 μM peptide; targets pulsed with 1.0 μM peptide. The procedure: FIGS. 3A and 3B are graphs showing immunogenicity of the wild type and enhanced POTE 252 epitopes in AAD mice. AAD mice were immunized subcutaneously with a mixture of peptide and cytokines in adjuvant as described in Example 1. (FIG. 3A) Two weeks after the second boost, splenocytes pooled from three mice were restimulated with splenocytes of naïve AAD mice pulsed with 1.0 μM of each peptide at different effector to target (E/T) ratios. Cells were cultured in anti-mouse IFN-γ antibody coated ELISPOT™ plates. After overnight culture, biotinylated anti-mouse IFN-γ antibodies were added to each well. ELISPOT™ substrates were added to develop the color and spots were counted by an ELISPOT™ reader (AID ELISPOT™ reader system). Figures show numbers of spots per million cells. (FIG. 3B) CTL cross-reactivity on each peptide. Two weeks after the second boost, pooled spleen cells from three mice were restimulated with irradiated splenocytes pulsed with 1.0 μM of peptide for 7 days. In a 4-hour ^51Cr release assay, CIR.AAD cells were pulsed with 1.0 μM of peptide and labeled with ^51Cr. After washing three times, target cells were mixed with different numbers of effector cells and then cultured for 4 hours before harvesting.
FIGS. 4A-4D are graphs showing immunogenicity of the wild type and enhanced POTE 553 epitopes in AAD mice. AAD mice were immunized subcutaneously with a mixture of peptide and cytokines in adjuvant. (FIGS. 4A and 4B) Two weeks after the second boost, splenocytes pooled from three mice were restimulated with splenocytes of naïve AAD mice pulsed with 10 nM to 1.0 μM of each peptide at different E/T ratios. Cells were cultured in anti-mouse IFN-γ antibody coated ELISPOT™ plates. After overnight culture, biotinylated anti-mouse IFN-γ antibodies were added to each well. ELISPOT™ substrates were added to develop color and spots were counted by an ELISPOT™ reader (AID ELISPOT™ reader system). Figures show numbers of spots per million cells. (FIGS. 4C and 4D) CTL cross-reactivity on each peptide. Two weeks after the second boost, pooled spleen cells from three mice were restimulated with irradiated splenocytes pulsed with 1.0 μM of peptide for 7 days. In a 4-hour ^51Cr release assay, CIR.AAD cells were pulsed with 1.0 μM of peptide and labeled with ^51Cr. After washing three times, target cells were mixed with different numbers of effector cells and then cultured for 4 hours before harvesting.
FIGS. 5A and 5B are graphs showing immunogenicity of the POTE 272 epitope in AAD mice. AAD mice were immunized subcutaneously with a mixture of peptide and cytokines in adjuvant. (FIG. 5A) Two weeks after the second boost, splenocytes pooled from three mice were restimulated with splenocytes of naïve AAD mice pulsed with 1.0 μM POTE 272 peptide at different E/T ratios. Cells were cultured in anti-mouse IFN-γ antibody coated ELISPOT™ plates. After overnight culture, biotinylated anti-mouse IFN-γ antibodies were added in each well. ELISPOT™ substrates were added to develop color and spots were counted by an ELISPOT™ reader (AID ELISPOT™ reader system). Figures show numbers of spots per million cells. (FIG. 5B) CTL reactivity on POTE 272 peptide. Two weeks after the second boost, pooled spleen cells from three mice were restimulated with irradiated splenocytes pulsed with 1.0 μM POTE 272 peptide for 7 days. In a 4-hour ^51Cr release assay, CIR.AAD cells were pulsed with 1.0 μM POTE 272 peptide and labeled with ^51Cr. After washing three times, target cells were mixed with different numbers of effector cells and then cultured for 4 hours before harvesting.
FIGS. 6A and 6B are graphs showing immunogenicity of the wild type and enhanced POTE 323 epitopes in AAD mice. AAD mice were immunized subcutaneously with a mixture of peptide and cytokines in adjuvant. (FIG. 6A) Two weeks after the second boost, splenocytes pooled from three mice were restimulated with splenocytes of naïve AAD mice pulsed with 1.0 μM of each peptide at different E/T ratios. […]

Turning to “KLMAKALLL [POTE 252-260, unmodified 9-mer peptide, residues 252-260 of human POTE]”, in the assay with HLA-A2 molecule (T2 binding assay), the “binding affinity for the HLA-A2 molecule (in words)” value is on record as “intermediate binders”. Besides, the FI0.5 in the assay with HLA-A2 molecule (substituted peptides and their wild types, Table 2 / FIGS. 2A-2C) is 1.5 µM; in the assay with HLA-A2 molecule (wild-type peptides, Table 1 / FIG. 1), about 1.6 µM. In addition, the “CTL lysis of peptide-pulsed target cells” value in assay [1] is on record as “lysed target cells pulsed with the wild-type POTE 252 as well as POTE 252-9V”.
